Test results taken from patent publication US20240059782A1 (AGILENT TECHNOLOGIES, published 2024).

T1: human B-cell maturation antigen (BCMA) (human, UniProt Q02223 1-184)
T1 construct: whole, on cells; Endogenous BCMA in tissue sections and BCMA-positive cell lines; also called tumor necrosis factor receptor superfamily member 17; TNFRSF17
T1 sequence (looked up): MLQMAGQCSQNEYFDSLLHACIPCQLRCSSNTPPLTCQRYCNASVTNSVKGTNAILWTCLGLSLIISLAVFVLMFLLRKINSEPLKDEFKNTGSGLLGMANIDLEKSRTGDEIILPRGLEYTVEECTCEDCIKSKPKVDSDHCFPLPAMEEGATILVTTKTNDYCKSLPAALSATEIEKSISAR

T2: recombinant fusion protein containing the entire extracellular domain of human BCMA (amino acids 1-54) in … (human, UniProt Q02223 1-54)
T2 construct: range 1-54; Expressed in HEK cells; also called BCMA antigen; extracellular BCMA antigen; not shown: rabbit Fc domain
T2 sequence (looked up): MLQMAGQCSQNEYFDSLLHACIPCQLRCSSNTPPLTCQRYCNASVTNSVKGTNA

T3: recombinant fusion protein containing the entire intracellular domain of BCMA (amino acids 78-184) (human, UniProt Q02223 78-184)
T3 construct: range 78-184; also called intracellular BCMA antigen; the antigen
T3 sequence (looked up): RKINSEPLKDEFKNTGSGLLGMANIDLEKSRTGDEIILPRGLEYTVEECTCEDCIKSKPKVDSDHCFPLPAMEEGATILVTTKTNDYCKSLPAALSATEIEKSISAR


Tests used:
[1] = target: T1, human B-cell maturation antigen (BCMA); assay: standard IHC (Envision FLEX) on reactive lymph node
[2] = target: T2, recombinant fusion protein containing …; assay: BLI (BLItz), recombinant antibody on the immunising antigen
[3] = target: T1, human B-cell maturation antigen (BCMA); assay: supersensitive IHC on reactive lymph node
[4] = target: T3, recombinant fusion protein containing …; assay: BLI (BLItz), recombinant antibody on the immunising antigen
[5] = target: T1, human B-cell maturation antigen (BCMA); assay: supersensitive IHC on normal colon

binding result [1] | binding result [2] | binding result [3] | binding result [4] | binding result [5] | Binder
binds | binds |  |  |  | anti-human BCMA antibody clone 10A2 (Extracellular) (antibody, V domains shown, Rabbit monoclonal IgG/kappa1; The chains are built here from V + constant entries so that the signal peptide is left out; Supersensitive IHC used B-cell culture supernatant; BLI and standard IHC used recombinant antibody from HEK293-6E cells; also called B cell clone 10A2; BCMA clone 10A2) VH: QSVEESGGRLVTPGTPLTLTCTASGFSLTTYAMGWVRQAPGKGLEWIGYIWSSGTTDYASWAKGRFTISKTSPTVDLKMTSPTTEDTATYFCARYINYVTGDLWGQGTLVTVSS VL: AQVLTQTPSPVSADVGGTVTINCQASQSVYNNVLLAWYQQKAGQPPKLLIYKASTLASGVSSRFKGSGSGTQFTLTISGVQCDDAATYYCQGEFSCSSADCTAFGGGTEVVVKG
 |  | binds | binds |  | anti-human BCMA antibody clone 5C1 (intracellular) (antibody, V domains shown, Rabbit monoclonal IgG/kappa1; also called B cell clone 5C1; intracellular clone 5C1) VH: QSLEESRGGLFKPTDTLTLTCTVSGFSLKTYVINWVRQAPGNGLEWIGIIDTGDMTYYASWAKSRSTITRNTNENTVTLKMTSLTAADTATYFCASGDIWGPGTLVTVSS VL: AQVLTQTASPVSAAVGGTVTINCQASQSVYSNWLSWFQQKPGQPPKRLIYSASTLASGVSSRFKGSGSGTQFTLTISDVQCDDAATYYCLGEFNCARADCRAFGGGTEVVVKG
 | binds |  |  | binds | anti-human BCMA antibody clone 9H5 (Extracellular) (antibody, V domains shown, Rabbit monoclonal IgG/kappa1; The chains are built here from V + constant entries so that the signal peptide is left out; Supersensitive IHC used B-cell culture supernatant; BLI and standard IHC used recombinant antibody from HEK293-6E cells; also called B cell clone 9H5; BCMA clone 9H5) VH: QSLEESGGRLVTPGGSLTLTCTVSGFSLSAYAMSWVRQAPGKGLEWIGYINYDGIAYYTNWAKGRFTISKTSTTVDLKITSPTTEDTAAYFCASDLLGVFNLWGQGTLVTVSS VL: AAVLTQTASPVSAAVGGTVTINCQASQSVYSNNRLSWFQQKPGQPPKLLIYYASFLASGVPSRFKGSGSGAQFTLTISDLQCDDAATYYCAGGYISYSDNAFGGGTEVVVKG
